In assay [1] the target is wild-type CfaB, mature form, with N-terminal hexahistidine tag (^wtCfaB, (his)6CfaB) (enterotoxigenic Escherichia coli (ETEC)) (UniProt E3PPC4).
Assay [2] shares this target. Description: pull-down.

Consider “wild-type CfaA with C-terminal Strep-tag (^wtCfaA, CfaA(Strep)) (natural protein)”, for which, in assay [1], the kf, fast-phase rate constant of chaperone-assisted refolding of denatured CfaB amounted to 0.54 s⁻¹. In addition, the ratio between CfaA and CfaB (densitometry of the pull-down) in assay [2] came to 0.6.

These data come from publication PMC5161713.
